The numbers were not newly measured in article PMC3733499 (Thrombosis and haemostasis, 2013), which cites them from elsewhere.

Substitutions are numbered along the chain they refer to. Names and notes keep the numbering of the source.

The subject of one series is FXa binding to FVa. Particulars: ref [19]; cited from earlier work.
In series [1] the target is T1, FVa (Homo sapiens, UniProt P07225).
T1 sequence (P07225 42-676): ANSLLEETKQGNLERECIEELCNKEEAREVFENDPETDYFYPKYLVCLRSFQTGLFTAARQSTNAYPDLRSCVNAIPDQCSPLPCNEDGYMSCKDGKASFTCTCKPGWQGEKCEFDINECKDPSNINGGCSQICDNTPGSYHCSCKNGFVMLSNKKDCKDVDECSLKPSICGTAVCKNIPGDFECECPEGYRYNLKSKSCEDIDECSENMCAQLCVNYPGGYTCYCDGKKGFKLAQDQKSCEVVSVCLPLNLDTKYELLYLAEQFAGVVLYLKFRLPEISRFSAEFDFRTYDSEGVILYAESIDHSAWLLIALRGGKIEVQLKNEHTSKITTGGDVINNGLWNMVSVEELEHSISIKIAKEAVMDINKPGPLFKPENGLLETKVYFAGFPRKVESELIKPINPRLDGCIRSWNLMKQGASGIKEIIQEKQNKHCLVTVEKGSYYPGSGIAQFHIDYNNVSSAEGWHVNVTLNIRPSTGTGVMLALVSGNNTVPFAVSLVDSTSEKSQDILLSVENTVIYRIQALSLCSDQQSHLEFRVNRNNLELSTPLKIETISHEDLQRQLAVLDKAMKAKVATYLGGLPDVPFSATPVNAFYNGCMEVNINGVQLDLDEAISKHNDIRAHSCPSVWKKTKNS
Particulars: ref [19]; cited from earlier work.

Series [2] has as its target prothrombinase (FXa/FVa/PL) (Homo sapiens, UniProt P00742+P12259). Conditions: only in the presence of FVa; ref [19]; cited from earlier work.
The subject of another series is APC. Conditions: recombinant; ref [39]; cited from earlier work.
A further series deals with FXa. Conditions: recombinant; ref [39]; cited from earlier work.
In series [3] the test system is FVa. Particulars: recombinant; ref [39]; cited from earlier work.

prothrombinase (FXa/FVa/PL), sequence (P12259 29-737 limits assumed): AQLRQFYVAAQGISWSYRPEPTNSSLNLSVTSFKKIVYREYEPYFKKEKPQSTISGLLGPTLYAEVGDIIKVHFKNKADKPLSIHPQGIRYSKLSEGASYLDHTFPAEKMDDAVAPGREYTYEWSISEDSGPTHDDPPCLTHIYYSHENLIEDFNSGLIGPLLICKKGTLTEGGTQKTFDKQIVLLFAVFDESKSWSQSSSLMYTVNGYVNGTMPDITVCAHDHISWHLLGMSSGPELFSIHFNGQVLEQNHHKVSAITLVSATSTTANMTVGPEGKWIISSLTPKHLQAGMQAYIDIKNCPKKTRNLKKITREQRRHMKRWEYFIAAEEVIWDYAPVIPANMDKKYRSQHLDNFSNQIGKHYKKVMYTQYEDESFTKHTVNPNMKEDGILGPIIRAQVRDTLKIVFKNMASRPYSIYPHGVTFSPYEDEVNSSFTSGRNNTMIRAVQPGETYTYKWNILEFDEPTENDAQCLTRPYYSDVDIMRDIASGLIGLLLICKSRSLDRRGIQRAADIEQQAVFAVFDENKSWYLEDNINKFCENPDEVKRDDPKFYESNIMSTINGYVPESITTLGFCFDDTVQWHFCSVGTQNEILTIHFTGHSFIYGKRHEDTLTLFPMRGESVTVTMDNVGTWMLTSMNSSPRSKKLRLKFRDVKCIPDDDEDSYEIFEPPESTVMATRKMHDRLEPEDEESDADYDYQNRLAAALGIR
prothrombinase (FXa/FVa/PL), sequence (P12259 1574-2224 limits assumed): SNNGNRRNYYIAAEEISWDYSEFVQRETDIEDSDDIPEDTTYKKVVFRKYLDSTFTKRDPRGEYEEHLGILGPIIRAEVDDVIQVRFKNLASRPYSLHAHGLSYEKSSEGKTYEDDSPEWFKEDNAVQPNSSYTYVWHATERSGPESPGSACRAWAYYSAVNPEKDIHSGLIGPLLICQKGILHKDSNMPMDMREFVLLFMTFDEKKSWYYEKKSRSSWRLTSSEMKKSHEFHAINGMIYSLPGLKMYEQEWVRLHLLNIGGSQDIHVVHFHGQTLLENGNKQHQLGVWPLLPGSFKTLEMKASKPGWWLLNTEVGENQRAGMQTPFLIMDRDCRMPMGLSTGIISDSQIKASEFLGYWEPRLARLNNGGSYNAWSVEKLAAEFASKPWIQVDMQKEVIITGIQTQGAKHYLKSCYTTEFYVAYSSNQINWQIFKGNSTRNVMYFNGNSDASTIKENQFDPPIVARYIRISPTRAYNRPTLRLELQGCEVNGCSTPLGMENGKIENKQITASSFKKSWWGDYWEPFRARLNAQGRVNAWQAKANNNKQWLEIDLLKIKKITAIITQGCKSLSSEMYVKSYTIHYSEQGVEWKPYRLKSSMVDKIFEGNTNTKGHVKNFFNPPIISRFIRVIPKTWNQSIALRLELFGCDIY
prothrombinase (FXa/FVa/PL), sequence (P00742 41-179 partner limits assumed): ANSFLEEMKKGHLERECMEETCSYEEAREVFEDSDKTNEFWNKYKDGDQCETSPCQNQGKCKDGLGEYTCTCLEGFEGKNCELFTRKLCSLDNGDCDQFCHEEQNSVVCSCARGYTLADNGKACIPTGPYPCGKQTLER
prothrombinase (FXa/FVa/PL), sequence (P00742 235-488 partner limits assumed): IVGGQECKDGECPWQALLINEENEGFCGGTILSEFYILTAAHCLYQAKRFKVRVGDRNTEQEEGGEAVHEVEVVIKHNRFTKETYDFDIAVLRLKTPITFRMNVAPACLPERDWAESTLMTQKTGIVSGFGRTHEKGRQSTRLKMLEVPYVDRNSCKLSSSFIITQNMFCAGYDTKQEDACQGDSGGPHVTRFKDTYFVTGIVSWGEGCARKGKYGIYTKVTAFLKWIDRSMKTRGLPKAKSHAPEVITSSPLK

For the molecule “621–635 peptide: peptide representing PS residues 621–635 near the C-terminus (RAHSCPSVWKKTKNS; UniProt P07225 662-676, looked up, fragment)”, the “Competition with FXa for a binding site on FVa” value with FXa binding to FVa is on record as “appeared to compete with FXa for a binding site on FVa”. For the same molecule, the “Inhibition of PS binding to FVa” value in the series with FVa [1] is recorded as “inhibited PS binding to FVa”. For the same molecule, the “Inhibition of prothrombinase activity” value in series [2] is on record as “inhibited prothrombinase activity only in the presence of FVa”.

B1: K155E PS: recombinant K155E PS, prevalent Japanese mutation (protein, UniProt P07225 42-676, looked up, variant K155E)
Vitamin K-dependent protein S: T1 sequence (P07225 42-676) with K155E
As to B1, the “Binding to APC” value in the series with APC is “defective binding to FXa and to APC”. The “Binding to FXa” value with FXa is “defective binding to FXa and to APC”. The “Binding to FVa” value with FVa [3] is on record as “normal binding to FVa”.
